Experimental data from patent US20200222503A1 (published 2020).

T1: murine OX40 on CHOK1 cells (murine, UniProt P47741 20-272)
T1 chain: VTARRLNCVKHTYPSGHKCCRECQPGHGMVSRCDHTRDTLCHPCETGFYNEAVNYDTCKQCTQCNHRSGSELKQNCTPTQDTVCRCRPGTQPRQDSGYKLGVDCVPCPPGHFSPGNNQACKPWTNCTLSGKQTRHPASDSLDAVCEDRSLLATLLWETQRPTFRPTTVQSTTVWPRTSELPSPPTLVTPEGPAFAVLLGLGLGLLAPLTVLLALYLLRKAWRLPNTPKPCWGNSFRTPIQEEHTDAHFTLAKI

T2: murine PD-L2 on CHOK1 cells (murine, UniProt Q9WUL5 20-247)
T2 chain: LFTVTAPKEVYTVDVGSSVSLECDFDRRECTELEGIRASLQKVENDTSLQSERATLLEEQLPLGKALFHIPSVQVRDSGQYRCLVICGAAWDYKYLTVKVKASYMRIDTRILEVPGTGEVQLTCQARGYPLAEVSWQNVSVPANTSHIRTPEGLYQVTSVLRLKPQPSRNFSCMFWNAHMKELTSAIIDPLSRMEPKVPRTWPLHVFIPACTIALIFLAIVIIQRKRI


Tests used:
[1] = target: mCD40L-Fc; experiment: SPR
[2] = target: murine PD-L1 on CHOK1 cells (murine, UniProt Q9EP73 19-290); experiment: flow
[3] = target: T1, murine OX40 on CHOK1 cells; experiment: flow cytometry cell binding
[4] = target: T2, murine PD-L2 on CHOK1 cells; experiment: flow cytometry cell binding

Sequence of murine PD-L1 on CHOK1 cells (Q9EP73 19-290): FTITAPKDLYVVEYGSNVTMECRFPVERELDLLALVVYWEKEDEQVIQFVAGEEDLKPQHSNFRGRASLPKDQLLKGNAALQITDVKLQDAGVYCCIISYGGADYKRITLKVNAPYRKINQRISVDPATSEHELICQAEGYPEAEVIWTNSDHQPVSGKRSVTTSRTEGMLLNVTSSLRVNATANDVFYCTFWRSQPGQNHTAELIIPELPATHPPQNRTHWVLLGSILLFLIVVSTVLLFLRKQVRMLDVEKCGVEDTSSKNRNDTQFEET

| Kd [1] [nM] | EC50 [2] [nM] | EC50 [3] [nM] | EC50 [4] [nM] | Binder |
| --- | --- | --- | --- | --- |
| 3.23 |  |  |  | mCD40 (receptor) VTCSDKQYLHDGQCCDLCQPGSRLTSHCTALEKTQCHPCDSGEFSAQWNREIRCHQHRHCEPNQGLRVKKEGTAESDTVCTCKEGQHCTSKDCEACAQHTPCIPGFGVMEMATETTDTVCHPCPVGFFSNQSSLFEKCYPWTSCEDKNLEVLQKGTSQTNVICGLKSRMR |
|  | 27.8 | 6.28 | 47.7 | murine PD-1-Fc-OX40L chimeric protein (Fc fusion) LEVPNGPWRSLTFYPAWLTVSEGANATFTCSLSNWSEDLMLNWNRLSPSNQTEKQAAFCNGLSQPVQDARFQIIQLPNRHDFHMNILDTRRNDSGIYLCGAISLHPKAKIEESPGAELVVTERILETSTRYPSPSPKPEGRFQGMSSSPAKDPPIQRLRGAVTRCEDGQLFISSYKNEYQTMEVQNNSVVIKCDGLYIIYLKGSFFQEVKIDLHFREDHNPISIPMLNDGRRIVFTVVASLAFKDKVYLTVNAPDTLCEHLQINDGELIVVQLTPGYCAPEGSYHSTVNQVPL |
